Experimental data from the DeepSol protein solubility set.

test: soluble on expression in E. coli; label from the status in PepcDB or PDB records

Row | Sequence | soluble on expression in E. coli
1 | MSKNTGSVAPKERVNIKYVPATSDEQAEVELPHKMLVLGDFGLDDSRALEDRQVMRIDKHTFNSVLNDANVSLDVTVPSRLGTAPDTELAVHLQFRSINDFGPDRIARQVPELNKLLALREALVALKGPLGNVPAFRKQLQHLLNNEQARKQLAQELDLVLEAPEKD | not soluble
2 | MAHHHHHHMKLYSLAIVKPYPSGVEKQPVICSQAIDVSSFGFFQRNSAREFIVFLTRTVSNRVAKGVKTQITENGNVVFAHATFDGLVALAISDVEYNSRVAFTLLGDLVQQFQTTFRGKYDLVDGKEDNFLSWPHLTETLEKYQKPEEQDKILKIKRDIEDTKVIMYNAIDQIIERGQKIDDLVAQSEDLGMASKTFYKQAKKTNSGCCTVM | soluble
3 | MRSPYLIGVFLAAGKSRRMGQNKLALPLKGENIGSLSLKTALSSRLDHVLVVERTEHASLEWIGAPYHAPPFQKRWSLHVCQDAEKGQGHSVSSGVRKAESMGADGIVILLADQPQLSVDHLNALVALAPESFAVSSFLGAFTPPIYFSSTCFPYVKGLKGDEGARRLLKSGQLGAGAVLEAKDSGELDDIDTPRGILEHHHHHH | not soluble
4 | MGSDKIHHHHHHVSPSILGQGEVEQLLTGTYRSLQNDPGRDTWVLFDMRGENLINTYLSGSNDFVNNEIPSNNGTLLTMWRGYYKAIYNANTTLSILSNLEPSEKNTHIEAQARFLRAYAYYCLATRWDGVPIIKDNTLENVKRDKQSAVFNFIKEELSFCIDEGHLKPFGETSGAPFTVSLEAAQALMARLALTTGDMETAKNMAETLIANPKFKLSENYDNIFTTTNNSEIIFSFRNNTSEGGQNLYALFTTYNSPMKGSWFLCPSPESEKLFEDPADTRNNTCITTLESVSETYIIMNKFRDFTPLIVSRIAEMYLISAEAQGRNGLNRLNELRRSRGLNPYNNSDIASEEDYQKKVALERRKELYCEGFLFFDLIRTNKISEEVVSMNGKTNLYLPLPESEVQYNPNLNEYN | not soluble
5 | MSLNLAKRILQGEQLTKETVLKIYEDTNIDTLDLLNEAYILRKHYFGKKVKLNMILNAKSGICPENCGYCGQSRDIKQKQRYALIPEEQIIDGAKVAHDNHIGTYCIVMSGRGPSDKEVDHISNTVRTIKSQHPQLKICACLGLTNDEQAKKLKSAGVDRYNHNINTSENYHDNVVTTHSYKDRTDTIELMKANNISPCSGVICGMGESNQDIVDMAFALKEMDADSIPINFLHPIKGTKFGSMDDLTPMKCLRIVALFRLINPTKEIRIAGGREVNLRSLQPLALKAANSIFVGDYLITGGQPNQLDYDMINDLGFEIDYDTCENKENKNDVSRANEGHHHHHH | soluble
6 | MGSDKIHHHHHHMSHKPSAEDKEKSKLTKEEWRDYTKTVWSIANTSHEDHPAVFPLEIPHRLTKLFSFYGETVLDPFAGTGTTARAAIPLGRRAICVDQNADYTEIIKKDCAKLRNGHGADFEPLVVVNGDSRKMDFVESDSVGLVVTSPPYWNKADYGDSKRNLGTIERYSDFIEGIRPVFEECYRILTPGRKLCVVTANVNQHTDHGLLTFPLATDFAVLLRQIGFVMINEIIWSKDATGGKWGSYGAQRPIFGSYPYPPNFLFKNVHEYILIFAKPPRTKTTGPKVQPYKKLVEGLTGGIMEPDSLPAYAQAFRQQ | not soluble
7 | MSLKIIILGAGQVGGTLAENLVGENNDITVVDKNADRLRDLQDKYDLRVVNGHASHPDVLREAGAQDADMLVAVTNTDETNMAACQVAFTLFNTPNRIARIRSPQYLAEKEALFQSGAVPVDHLIAPEELVTSYIERLIQYPGALQVVSFAEEKVSLVAVKAYYGGPLVGNALSALRDHMPHIDTRVAAIFRQGRPIRPQGTTIIEADDEVFFVAASNHIRSVMSELQRLEKPYRRIMIVGGGNIGASLAKRLEQTYSVKLIEHNYQRAEQLSEQLENTIVFCGDAADQELLSEENIDQVDVFIALTNEDETNIMSAMLAKRMGAKKAMVLIQRSGYVDLVQGGVIDVAISPQQATISALLTHVRRADIVNVSSLRRGAAEAIEAIAHGDESTSKVVGRAVGDIKLPPGTTIGAIVRGEEVLIAHDRTVIEQDDHVVMFLVDKKYVPDVETLFQPSPFFLEGHHHHHH | soluble
8 | MNINEPSVSIIMATYNSEKFLRETLDSICCQTYGNWELIITDDSSTDNTSDILRDYSERYNNIFYSINEVNQGAAISRNKCISQAKGMYIAFIDSDDLWAHNKLEKHIHFIAEHNSAISFTSYELMNENGIPLGKYVDANIPPVLTYNDMLRKKATIGCSTVILSSKLVGEFKMPLLRTGQDYATWLLLLKKVEVAHHFPKVLTKYRVCKNSISRNKFKKAKRQWQIYREVEKLPFYESIVCFCFYAWRAVFRK | not soluble
9 | MNFNVIICGVGGQGVVLASRLLAITAMNSGFHVNTAETLGMSQREGSVVSHLQFGENIKSSLIPEGSTDLIIGLEVSEVARNIHFLKKDGKIITNSNLILPSARSSNEKYDSEKIINFIKEKVKSTICIDFSKIAKVAGNPKSMNVSVLSAAFYTGFLPLEYEDFLKTIESEIPEKYRDINLNATKLSAETISNMLEGHNE | not soluble
10 | MYEGKVGFDFLGFTVRQFPVGKYHSGKSSSGKLLGYKTLITPSKAKLKIHAQKIGKLIDEHKAVPQSDLIAHLNPVIRGWTNYYSCVVSKRIFNQADTTLFSQLKAWAEHRHPNKSSRWSCQKYWQTVGSDNWVFKPHNQKIRLLKHRETRIVRHILEHHHHHH | not soluble
11 | MAGASHDIHPPKVEYFDLRDHTNTDPKGFVRHVDHYRVEPWGLYMARTSDHPQFHYLESWLLPDLGLRASIFHYHPYHQRDQDHYVDIGTFTRGDDVWKSEDHYLDLVVRTGRDTELLDVDELMEAHTTGLLDTATAEQAILTATTAIDGIAAHGHDLGRWLASIGMPIDWR | soluble
12 | MSLTRQMNILLVEDDDLDAMMIKRAMAQVAPDAHLIRATDGVEALEIVQSNRVEDPYFILLDVNMPRMNGHEFLKELRASSEHSDTMVFMFTTSESARDIARAYQERANGYIVKPHGKAAMNSILDTLQRYWTTCEEGHHHHHH | soluble
13 | MRSRVLWGAARWLWPRRAVGPARRPLSSGSPPLEELFARGGPLRTFLERQAGSEAHLKVRRPELLAVIKLLNEKEQELRETEHLLHDENEDLRKLAENEITLCQKEITQLKHQIILLLVPSEETDENDLILEVTAGVGGQEAMLFTSEIFDMYQQYAAFKRWHFETLEYFPSELGGLRHASASIGGSEAYRHMKFEGGVHRVQRVPKTEKQGRVHTSTMTVAILPQPTEINLVINPKDLRIDTKRASGAGGQHVNTTDSAVRIVHLPTGVVSECQQERSQLKNKELAMTKLRAKLYSMHLEEEINKRQNARKIQIGSKGRSEKIRTYNFPQNRVTDHRINKTLHDLETFMQGDYLLDELVQSLKEYADYESLVEIISQKV | soluble
14 | AGKPDWDWQPAPKNEALIAAVSAAAQEGLNAAYQIREKQARTTKLREVYAAVQAAMAEQAAQAGQPAPDSVGVDNILFDLEARIVRSQILNGEPRIDGRDTRTVRP | not soluble
15 | MGSDKIHHHHHHMVKIKGLNGNLVFIFGPGSFDEYLSFLEEKLTANKQLFSGSRVIFKGEELKKLSHSQIASLQELCLRHGVIMNNNAVTVNKGSSKDLVIYRNLRSGQKLRSEGSVIIWGDVHESAEILAAGDIIVLGKLDGIAHAGCYGDMNRLIFALSLSPGQIRIGDRLSRSPEDPDKSPHPEIAFWDGENICIKAYSSRSGLRG | not soluble
16 | GPGSMRWPAEPGCGSQGPATPERANKLRFLLVGKTDSGNHPSGWLVARTVRYSTADAEIGPCKGLISHDCKLLLLLCGYFERNPGPLRFVQQNVNGVSAVKLSSLLALDADVYLLPEVKKLREASRICKVPPYTVYCSPPNARGGRVAILVHQRSSIQTRSVTWKALPNDTGIKAVTVKL | not soluble
17 | MGSHHHHHHDITSLYKKAGSENLYFQMKLRYLNILKEKLGREPTFVELQAFSVMWSEHCGYSHTKKYIRRLPKTGFEGNAGVVNLDDYYSVAFKIESHNHPSAIEPYNGAATGVGGIIRDVLAMGARPTAIFDSLHMSRIIDGIIEGIADYGNSIGVPTVGGELRISSLYAHNPLVNVLAAGVVRNDMLVDSKASRPGQVIVIFGGATGRDGIHGASFASEDLTGDKATKLSIQVGDPFAEKMLIEAFLEMVEEGLVEGAQDLGAGGVLSATSELVAKGNLGAIVHLDRVPLREPDMEPWEILISESQERMAVVTSPQKASRILEIARKHLLFGDVVAEVIEEPVYRVMYRNDLVMEVPVQLLANAPEEDIVEYTPGKIPEFKRVEFEEVNAREVFEQYDHMVGTDTVVPPGFGAAVMRIKRDGGYSLVTHSRADLALQDTYWGTLIAVLESVRKTLSVGAEPLAITNCVNYGDPDVDPVGLSAMMTALKNACEFSGVPVASGNASLYNTYQGKPIPPTLVVGMLGKVNPQKVAKPKPSKVFAVGWNDFELEREKELWRAIRKLSEEGAFILSSSQLLTRTHVETFREYGLKIEVKLPEVRPAHQMVLVFSERTPVVDVPVKEIGTLSR | soluble
18 | MGSDKIHHHHHHMTTSTGKINLLGLTQPEMEQFFDSIGEKRFRAGQVMKWIHHFGVSDFAAMTNVGKVLREKLEAVAEIRPPEVVSEDISADGTRKWVIRVASGSCVETVYIPTDDRGTLCVSSQAGCALDCSFCSTGKQGFNSNLTAAEVIGQVWLANKSFGTVPAKVDRAITNVVMMGMGEPLLNFDNVIAAMKIMMDDLGYGISKRRVTLSTSGVVPMIDELAKHIDVSLALSLHAPNDELRNKLVPINKKYPLKVLLESCMGYMSTLGGKRVLTVEYTLLKDVNDQPEHAAQMIELLRDVPCKINLIPFNPFPHSGYERPSNNAIRRFQDLLHHGGFNVTTRTTRGDDIDAACGQLVGQVNDRTRRSERYIAVRQLSADVELPDSAASH | not soluble
19 | MGKKELKRGLVVDREAQMIGVYLFEDGKTYRGIPRGKVLKKTKIYAGDYVWGEVVDPNTFAIEEVEERKNLLIRPKVANVDRVIIVETLKMPEFNNYLLDNMLVVYEYFKVEPVIVFNKIDLLNEEEKKELERWISIYRDAGYDVLKVSAKTGEGIDELVDYLEGFICILAGPSGVGKSSILSRLTGEELRTQEVSEKTERGRHTTTGVRLIPFGKGSFVGDTPGFSKVEATMFVKPREVRNYFREFLRYQCKYPDCTHTNEPGCAVKEAVKNGEISCERYKSYLKIIKVYLEEIKELCRED | soluble
20 | MSLKGRPIKEFSLVMDLSQAKKGADKMGYMEDLRKRVGTRPLILPASVVIILNEQDEILLQKRLDGRWGLPGGLMELGESFEETAKREILEETGLTIKNVTFLDVFSGKDLYVKVENGDEFYAVTALFMTREVAGGIQMDPRESLDLQYIALDQFPPNVTRTSKIFLDRFMELKEGHHHHHH | soluble
21 | MSLRVTYRRRLSYNTTSNKKRLVKTPGGRLVVQYIKKRGQIPKCRDTGVKLHGITPARPIALRLLKRNERTVTRAYGGCLSPNAVKERITRAFLVEEQKIVNKVIKHQKD | not soluble
22 | MPLLSVIIPFGLSKERPYIEERVLQKAKFFQSDENIEFIFVEGYSSKDHELKNFIQANHHIYLKDMDQKAFSQGRCRNLGASYAHSNVLLFLDVDCYISLDNFEKILKLIQIKNISQNINALIVLPVVYLNKEANEKLKQYDDKFWDILIQEDLFTAKNTWVKFFAPSSTSSIVINKHQFLRLGGNDENFIGHGYEDFDLFARILKACVSFEKMPTNLSYDARNWNFFNFKGFRSWFSLLGYEACFYGIYIYHFYHIEPNQNAYMQNKDKNHQLFYKHLKNIKKHDLKPLQVFKAKGEKVLMLFKDQNYDFKDISVYVGEIIYKNISDFFIAKELKYELLLDFLQQEKITKIFLDASIKLQFNGIDYCDIFYFQKGILPHSWFFAKKLDLGYKQDLNLSEQKLYQVKEYFLTLKEDEKKVILDFLSQNNDDKYDLYKMLYYLINELYSFEHDGIFYQIIIDKEKMLIAQKHDKSFYPLRSFVYKPYLHELKSIRPFSFLMKILGLEYLGAMISHTKFYRLARKLFFNPKGFFEDFNYKIMKGKI | not soluble
